Where a chain is given by its changes, count along the chain named.
Columns and labels:
Assay in all cases: ELISA, antibody coated, OX40-ECD.His mutant supernatant; relative to silent alanine substitutions;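 further: captured OX40 mutant protein detected with HRP-labelled anti-His antibody, absorbance read-out, scaled to the mean signal of control mutants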
human OX40-ECD.His S57A = target: T1, human OX40-ECD.His S57A (human, UniProt P43489 29-214)
T1 construct: extracellular domain; not shown: C-terminal His-tag
T1 sequence (looked up): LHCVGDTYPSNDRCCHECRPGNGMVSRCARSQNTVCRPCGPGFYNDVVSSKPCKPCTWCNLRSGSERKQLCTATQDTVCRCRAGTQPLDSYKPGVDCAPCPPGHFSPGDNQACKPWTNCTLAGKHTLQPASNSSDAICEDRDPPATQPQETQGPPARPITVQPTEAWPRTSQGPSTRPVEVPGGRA

human OX40-ECD.His R55A = target: T2, human OX40-ECD.His R55A (human, UniProt P43489 29-214)
T2 construct: extracellular domain; not shown: C-terminal His-tag
T2 sequence (looked up): T1 sequence (looked up) with R27A, A29S

human OX40-ECD.His P69A = target: T3, human OX40-ECD.His P69A (human, UniProt P43489 29-214)
T3 construct: extracellular domain; not shown: C-terminal His-tag
T3 sequence (looked up): T1 sequence (looked up) with A29S, P41A

human OX40-ECD.His K79A = target: T4, human OX40-ECD.His K79A (human, UniProt P43489 29-214)
T4 construct: extracellular domain; not shown: C-terminal His-tag
T4 sequence (looked up): T1 sequence (looked up) with A29S, K51A

human OX40-ECD.His T35A = target: T5, human OX40-ECD.His T35A (human, UniProt P43489 29-214)
T5 construct: extracellular domain; not shown: C-terminal His-tag
T5 sequence (looked up): T1 sequence (looked up) with T7A, A29S

human OX40-ECD.His T85A = target: T6, human OX40-ECD.His T85A (human, UniProt P43489 29-214)
T6 construct: extracellular domain; not shown: C-terminal His-tag
T6 sequence (looked up): T1 sequence (looked up) with A29S, T57A

human OX40-ECD.His T154A = target: T7, human OX40-ECD.His T154A (human, UniProt P43489 29-214)
T7 construct: extracellular domain; not shown: C-terminal His-tag
T7 sequence (looked up): T1 sequence (looked up) with A29S, T126A

human OX40-ECD.His P129A = target: T8, human OX40-ECD.His P129A (human, UniProt P43489 29-214)
T8 construct: extracellular domain; not shown: C-terminal His-tag
T8 sequence (looked up): T1 sequence (looked up) with A29S, P101A

human OX40-ECD.His K142A = target: T9, human OX40-ECD.His K142A (human, UniProt P43489 29-214)
T9 construct: extracellular domain; not shown: C-terminal His-tag
T9 sequence (looked up): T1 sequence (looked up) with A29S, K114A

human OX40-ECD.His A126G = target: T10, human OX40-ECD.His A126G (human, UniProt P43489 29-214)
T10 construct: extracellular domain; not shown: C-terminal His-tag
T10 sequence (looked up): T1 sequence (looked up) with A29S, A98G

Fold Change (human OX40-ECD.His S57A): 0.963
Fold Change (human OX40-ECD.His R55A): 0.976
Fold Change (human OX40-ECD.His P69A): 0.987
Fold Change (human OX40-ECD.His K79A): 0.992
Fold Change (human OX40-ECD.His T35A): 1.02
Fold Change (human OX40-ECD.His T85A): 0.808
Fold Change (human OX40-ECD.His T154A): 0.843
Fold Change (human OX40-ECD.His P129A): 0.907
Fold Change (human OX40-ECD.His K142A): 0.921
Fold Change (human OX40-ECD.His A126G): 0.954
B1: 1.134.9-u1-IgG1L (antibody, V domains shown)
VH: QVQLQESGPGLVKPSGTLSLTCAVSGGSISSYNWWSWVRQPPGKGLEWIGEIYHGGNTNYNPSLKSRVTMSVDNSKNQFSLKLSSVTAADTAVYYCARAPGDWGGSPYFDFWGQGTLVTVSS
VL: SSELTQDPAVSVALGQTVRITCQGDNLRTYYASWYQQKPGQAPILLIYGRNKRPSGIPDRFSGSSSGNTASLTITGAQAEDEAAYYCNSRDSSGNPVVFGGGTKLTVL
notes: fully human IgG1, lambda

From patent US20210171647A1 (WUXI BIOLOGICS SHANGHAI, published 2021)
